For one molecule, IC50 results are on record in patent publication US20140045211A1 (University of California, published 2014).

A word on the IC50: it is the point on the concentration scale where inhibition reaches its midpoint.

The target in test [1] is T1, CCR1 on HEK293 cells / HEK293 membranes stably expressing CCR1 (UniProt P32246 1-355, limits assumed).
T1 construct: whole, on cells; also called chemokine receptor CCR1
T1 sequence (looked up): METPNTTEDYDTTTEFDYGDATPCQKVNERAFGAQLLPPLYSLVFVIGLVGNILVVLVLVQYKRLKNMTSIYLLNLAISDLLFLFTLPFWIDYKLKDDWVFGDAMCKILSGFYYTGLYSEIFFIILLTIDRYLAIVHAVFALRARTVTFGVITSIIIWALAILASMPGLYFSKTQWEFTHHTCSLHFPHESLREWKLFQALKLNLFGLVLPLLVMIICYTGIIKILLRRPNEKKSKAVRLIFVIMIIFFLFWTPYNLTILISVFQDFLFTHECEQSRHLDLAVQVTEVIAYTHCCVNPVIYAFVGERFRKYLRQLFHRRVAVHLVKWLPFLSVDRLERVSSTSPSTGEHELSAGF
The test is described as follows: SPA competition assay, HEK293 cells/membranes expressing CCR1; competitor (tracer) 125I-CCL3. As for the experimental part: (§1) Scintillation proximity assay (SPA) binding assays (GE Healthcare, Piscataway, N.J.) were conducted essentially as previously described. HEK293 cells stably expressing CCR1 were used for these assays, and untransfected HEK293 cells were used as a control. Assays were undertaken in a 96-well plate format and each data point was assayed in triplicate on a Microbeta plate counter (Perkin Elmer) for 1 min per well. Each well contained 20,000 cells, 0.2 mg WGA-PVT-SPA beads, increasing concentrations of unlabeled competitor chemokine, and either […] ¹²⁵I-CCL3 or […] ¹²⁵I-Streptavidin +400 pM CCL3-Biotin, in a total volume of 100 μL. IC₅₀ values were obtained by nonlinear regression curve fitting using Prism software (GraphPad, La Jolla, Calif.).
(§2) In order to test the use of ¹²⁵I-streptavidin as a surrogate radiolabel in a chemokine SPA assay, competition assays using membranes containing the chemokine receptor CCR1 were performed. CCL3 was used for these assays because ¹²⁵I-CCL3 is commercially available, allowing for a direct comparison. After immobilization of membranes to SPA beads, either radiolabeled chemokine, or a combination of biotinylated chemokine and ¹²⁵I-labeled streptavidin was added. […] In contrast, no binding of CCL3 or competition with CCL14 was observed when CCR1-expressing membranes were replaced with untransfected HEK293 membranes. […]

For test [2], the target named is T1, CCR1 on HEK293 cells / HEK293 membranes …. Briefly: SPA competition assay, HEK293 cells/membranes expressing CCR1; competitor (tracer) CCL3-biotin with 125I-streptavidin. As for the experimental part:
as §1, §2

B1: CCL14 (unlabeled; functional form containing residues 9-74) (ligand)
chain: GPYHPSECCFTYTTYKIPRQRIMDYYETNSQCSKPGIVFITKRGHSVCTNPSDKWVQDYIKDMKEN
notes: Whether the entry is already trimmed to 9-74 is so no residue range is applied; Expressed as a His-ubiquitin fusion and cleaved with Usp2-cc to leave the native N-terminus; also called CCL14/HCC-1; HCC-1 (9-74)
On to B1, for which the half-inhibitory concentration (IC50) in test [1] is 2.6 nM; in test [2], 0.9 nM.
